Reference: patent US20250197490A1 (HBM ALPHA THERAPEUTICS, published 2025)
Substitutions are numbered along the chain they refer to. Like-named read-outs stand apart in the source and are kept apart here.

What was measured:
biotinylated CRH [1] = target: T1, biotinylated CRH (human and mouse, UniProt P01143 145-185 (rat entry), not fully specified; biotin; which end is not stated for the result (NT-biotin and CT-biotin forms were used)); assay: ELISA, CRH (NT biotin)
T1 construct: also called biotin-CRH; CRH (NT biotin)
T1 peptide: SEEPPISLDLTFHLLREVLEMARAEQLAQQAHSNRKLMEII

biotinylated CRH [2] = target: T1, biotinylated CRH; assay: ELISA, CRH (NT biotin)
Protocol: Streptavidin (Thermo, Cat: 21125) was diluted in PBS to a concentration of 2 μg/ml. 100 μl of diluted streptavidin was added per well to ELISA microplates, and the plates were incubated overnight at 4° C. […] Subsequently, plates were washed and incubated with HRP-conjugated goat anti-human IgG (H+L) antibody (Jackson, Cat: 109-035-088) at 37° C. for 1 hour. 100 μL of 3,3′,5,5′-tetramethylbenzidine (TMB) substrate (Biopanda, Cat: TMB-S-003) was added, and the plates were incubated at room temperature for 15 minutes. 100 μL of ELISA stopping solution (Solarbio, Cat #: C1058) was added to terminate the reaction, and the optical density at 450 nm (OD450 nm) was determined by an ELISA plate reader (Molecular Devices, Spectra max 384 plus).
These potential PTMs were mutated individually either in HCDR2 alone, in LCDR1 alone, or in various combinations of mutations, as detailed in Table 3. […] Most ΔPTM variants retained functional activities.

[3] = target: T2, corticotropin-releasing hormone (CRH) peptide (human and mouse, UniProt P01143 145-185 (rat entry), not fully specified); assay: cell-based or functional assay
T2 peptide: T1 peptide

B1: PR302324 (antibody, human IgG1, kappa, V domains shown)
VH: EVQLQQSGPELVKPGASVKMSCKASGYTFTDYFMKWVKQSHGGSLEWIGVISPNNGDTFYNQKFKGKATLTVDKSSSTAFMQLNSLTSEDSAVYSCARGTDRALFAYWGQGTLVTVSA
VL: DVLMTQTPLSLPVSLGDQASISCRSSQSIVHSDGNTYLEWYLQRPGQSPKLLIYKVSNRFSGVPDRFSGSGSGTDFTLKISRVGAEDLGVYYCFQGSHIPWTFGGGTKLEVKR
**Q.** Does B1 bind (biotinylated CRH [1])?
**A.** binds

B2: PR302312 (antibody, human IgG1, kappa, V domains shown)
VH: B1 VH with V37M, G43K, S52N, K63N, F80Y, S95Y, A97T, D101A
VL: B1 VL with I99V
**Q.** Does B2 bind (biotinylated CRH [1])?
**A.** binds

B3: PR005657 (antibody, human IgG1, kappa, V domains shown)
VH: EVQLVESGGVLVQPGGSLRLSCAASGFTFSSYWMTWVRQAPGKGLEWVANIKQDASEKYYVDSVKGRFTISRDNAKNSLFLQMNSLRAEDTAVYYCARTLIFDYWGQGTLVTVSS
VL: DIVMTQSPLSLPVTPGEPASISCRSSQSLLHSTGYNSLEWYLQKPGQSPQLLIYLGSNRASGVPDRFSGSGSGTDFTLKISRVEAEDVGIYYCMQTLQTPITFGQGTRLEIKR
**Q.** For B3, which “EC50 (read off the curve)” value (biotinylated CRH [2]) is on record?
**A.** ~0.03 nM

B4: PR005658 (antibody, human IgG1, kappa, V domains shown)
VH: B3 VH with A55G
VL: B3 VL with N36Q
**Q.** How did the “EC50 (read off the curve)” value (biotinylated CRH [2]) turn out when B4 was run?
**A.** ~0.03 nM

B5: PR005662 (antibody, human IgG1, kappa, V domains shown)
VH: B3 VH
VL: B3 VL with N36Q
**Q.** B5 was tested. Which “EC50 (read off the curve)” value (biotinylated CRH [2]) did it give?
**A.** ~0.03 nM

B6: PR006142 (antibody, human IgG1, kappa, V domains shown)
VH: B3 VH with D54E, A55G
VL: B3 VL with N36D
**Q.** Does B6 bind (biotinylated CRH [2])?
**A.** binds

B7: PR006144 (antibody, human IgG1, kappa, V domains shown)
VH: B3 VH with D54E, A55G
VL: B3 VL with S37P
**Q.** Does B7 bind (biotinylated CRH [2])?
**A.** binds

B8: PR006146 (antibody, human IgG1, kappa, V domains shown)
VH: B3 VH
VL: B3 VL with N36D
**Q.** Does B8 bind (biotinylated CRH [2])?
**A.** binds

B9: PR006147 (antibody, human IgG1, kappa, V domains shown)
VH: B3 VH
VL: B3 VL with N36H
**Q.** Does B9 bind (biotinylated CRH [2])?
**A.** binds

B10: PR006148 (antibody, human IgG1, kappa, V domains shown)
VH: B3 VH
VL: B3 VL with S37P
**Q.** Does B10 bind (biotinylated CRH [2])?
**A.** binds

B11: PR006149 (antibody, human IgG1, kappa, V domains shown)
VH: B3 VH
VL: B3 VL with N36S
**Q.** Does B11 bind (biotinylated CRH [2])?
**A.** binds

B12: PR006150 (antibody, human IgG1, kappa, V domains shown)
VH: B3 VH with A55S
VL: B3 VL with N36D
**Q.** Does B12 bind (biotinylated CRH [2])?
**A.** binds

B13: PR006151 (antibody, human IgG1, kappa, V domains shown)
VH: B3 VH with A55S
VL: B3 VL with N36H
**Q.** Does B13 bind (biotinylated CRH [2])?
**A.** binds

B14: PR006152 (antibody, human IgG1, kappa, V domains shown)
VH: B3 VH with A55S
VL: B3 VL with S37P
**Q.** Does B14 bind (biotinylated CRH [2])?
**A.** binds

B15: PR006153 (antibody, human IgG1, kappa, V domains shown)
VH: B3 VH with A55S
VL: B3 VL with N36S
**Q.** Does B15 bind (biotinylated CRH [2])?
**A.** binds

B16: PR302034 (antibody, human IgG1, kappa, V domains shown)
VH: EVQLVESGGGLVQPGGSLRLSCAASGFTFSNYWMNWVRQAPGKGLEWVGEIRLKSNNYATHYAESVKGRFTISRDDSKNSLYLQMNSLKTEDTAVYYCTVGTLVYWGQGTLVTVSS
VL: DIQLTQSPSSLSASVGDRVTITCRASQSVSTSTYNYMHWFQQKPGKAPKLLIKFASNLESGVPSRFSGSGSGTDFTLTISSLQPEDTATYYCQHSWEIPYTFGQGTKLEIKR
**Q.** B16 was tested. Which “unlabelled nM value (Table 5 matrix; likely hCRHR1-Luc IC50 as in Tables 6-8)” value (shortened to “unlabelled nM value”) [3] did it give?
**A.** 6.87 nM

B17: PR302048 (antibody, human IgG1, kappa, V domains shown)
VH: B16 VH with R19K, P41S, S80T, L81A, V100R
VL: B16 VL
**Q.** Which “unlabelled nM value” value [3] does the source give for B17 here?
**A.** 6.66 nM

B18: PR302055 (antibody, human IgG1, kappa, V domains shown)
VH: B16 VH with V2M, R19K, P41S, G49A, N79S, S80T, L81V
VL: B16 VL
**Q.** B18 was tested. Which “unlabelled nM value” value [3] did it give?
**A.** 1.35 nM

B19: PR302069 (antibody, human IgG1, kappa, V domains shown)
VH: B16 VH with V2M, Q13K, G49A, N79S, S80T, L81V
VL: B16 VL
**Q.** How did the “unlabelled nM value” value [3] turn out when B19 was run?
**A.** 1.54 nM

B20: PR302328 (antibody, human IgG1, kappa, V domains shown)
VH: EVKLVESGGGLVKPGGSLKLSCAASGFTFSSYAMSWVRQTPEKRLEWVASIRSGGTTYYPDSVKGRFTISRDNARNILYLQMSSLRSEDTAIYYCTRGIDWGQGTLVTVSA
VL: NIVMTQTPKFLLVSAGDRVTITCKASQSVNNDVAWYQQKPGQSPKLLIYYASNRYTGVPDRFTGSGYGTDFTFTISTVQAEDLAVYFCQQDYSSWTFGGGTKLEIKR
**Q.** Does B20 bind (biotinylated CRH [1])?
**A.** binds

B21: PR302331 (antibody, human IgG1, kappa, V domains shown)
VH: B20 VH with T40S
VL: B20 VL with T22A
**Q.** Does B21 bind (biotinylated CRH [1])?
**A.** binds

B22: PR302339 (antibody, human IgG1, kappa, V domains shown)
VH: B20 VH with M34L
VL: B20 VL
**Q.** Does B22 bind (biotinylated CRH [1])?
**A.** binds

B23: PR302333 (antibody, human IgG1, kappa, V domains shown)
VH: QIQLVQSGPELKKPGETVKISCKASGYTFTNFGMNWVKQAPGKVLKWMGWINTYTGEPIYADDFKGRFAFSLETSASAAYLQINNLKNEDTATYFCSRSTMITTGGVFAYWGQGTLVTVSA
VL: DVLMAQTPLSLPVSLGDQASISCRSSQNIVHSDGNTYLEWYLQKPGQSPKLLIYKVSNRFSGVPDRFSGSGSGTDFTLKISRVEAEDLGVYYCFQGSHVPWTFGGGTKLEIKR
**Q.** Does B23 bind (biotinylated CRH [1])?
**A.** binds

B24: PR302332 (antibody, human IgG1, kappa, V domains shown)
VH: B23 VH with N35H, D62A, A78T
VL: B1 VL with T5A, R44K, G84E, I99V, V111I
**Q.** Does B24 bind (biotinylated CRH [1])?
**A.** binds

B25: PR302335 (antibody, human IgG1, kappa, V domains shown)
VH: DVQLVESGGGLVQPGGSRKLSCAASGFTFSSFGMHWVRQAPEKGLEWVAYISSGSTIFYYADTVKGRFTISRDNPKNTLFLQMTSLRSEDTAMYYCARDITTATFAFWGQGTLVTVSA
VL: DVVLTQTPLSLPVSLGDQVSISCRSSQNLLHNNGNTYLHWYLQKPGQSPRLLIYKVSNRFSGVPDRFSGSGSGTDFTLKITRVEAEDLGVYFCSQSTHIPWTFGGGTKLEIKR
**Q.** Does B25 bind (biotinylated CRH [1])?
**A.** binds
